Source: the nanobody polyreactivity screen of Harvey et al. (2022)

Experiment: yeast display, Sf9 membrane polyspecificity reagent, FACS + sequencing; frameworks hold sequencing errors
How it was run: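 After 36–48 hours of galactose induction, yeast (Saccharomyces cerevisiae BJ5465) displaying a synthetic nanobody library were stained at 4 °C for 1 hour with 10% biotinylated, detergent-solubilized Sf9 membrane reagent. Streptavidin microbeads enriched the stained cells before FACS sorting into low and high (top ~1%) gates on anti-HA and streptavidin fluorescence. Each clone's polyreactivity label reflects its gate of origin.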

Which “polyreactivity (PSR sort gate)” value does the source give for “QVQHVESGGGLVQAGGSLRLSCAASGRTFKYYAMGWDRQAPGKERELVAAITRRGTSTYYADSVKGRFTISRDNAKNTVYLQMNSLKPEDTAVYYCNKDSPVTYSSRYGYWGQGTQVTVSS” here?
Its value is “high polyreactivity”.

Which “polyreactivity (PSR sort gate)” value does the source give for “QVQHVESGGGLVQAGGSLRLSCAASGRTFNLKAMGWYRQAPGKERELVAAISWSGGSTYYADSVKGRFTISRDNAKNTVYLQMNSLKPEDTAVYYCAAETYAYLFHTYDYWGQGTQVTVSS” here?
The value was “low polyreactivity”.

Which “polyreactivity (PSR sort gate)” value does the source give for “QVQHVESGGGLVQAGGSLRLSCAASGRTFPLNAMGWYRQAPGKERELVYAITWSGGRTYYADSVKGRFTISRDYAKNTVYLQMNSLKPEDTAVYYCAAKRTTWKIQSGYDYWGQGTQVTVSS” here?
Its value is “low polyreactivity”.

With “QVQHVESGGGLVQAGGSLRLSCAASGRTFRDYVMGWYRQAPGKETALVAAISTRGASTYYADSVKGRFTISRDNANNTVYLQMNRLKPEDTAVYYCAARSTRRGNEYDYWGQRTQVTVSS” as the sequence, how does the “polyreactivity (PSR sort gate)” value read?
The value was “high polyreactivity”.

With “QVQHVESGGGLVQAGGSLRLSCAASGRTFRRNVMGWYRQAPGKERELVAAISSGANTNYADSVKGRFTISRDNAKNTVYLQMNSLKPEDTAVYYCNARWQEPLKYDYWGQGTQVTVSS” as the sequence, how does the “polyreactivity (PSR sort gate)” value read?
Its value is “low polyreactivity”.

For “QVQHVESGGGLVQAGGSLRLSCAASGRTFTHYAMGWYRQAPGKERELVAVITTGGSTYYADSVKGRFTISRDNAKNTVYLQMNSLKPEDTAVYYCAATALSGLGYWGQGTQVTVSS”, which “polyreactivity (PSR sort gate)” value is on record?
The value was “low polyreactivity”.

For “QVQHVESGGGLVQAGGSLRLSCAASGRTLLGNAMGRYRQAPGKEREFVAAISYRGGSTYYADSVKGRFTISRDNAKNTVYLQMNSLKPEDTAVYYCAASSFKYSRFDYWGQGTQVTVSS”, which “polyreactivity (PSR sort gate)” value is on record?
Its value is “low polyreactivity”.

Which “polyreactivity (PSR sort gate)” value does the source give for “QVQHVESGGGLVQAGGSLRLSCAASGRTLRYYAMGGYRRAPGKERELVAAITKSGGSPYYADSVKGRFTISRDNAKNTVYLQMYSLKPEDTAVYYCNKVTYSRAQYIGGAGYYWGQGTQVTVSS” here?
The value was “high polyreactivity”.

Which “polyreactivity (PSR sort gate)” value does the source give for “QVQHVESGGGLVQAGGSLRLSCAASGSIFAGYAMGWYRQAPGKEWELVAAISRRGGRKYYADSVKGRFTISRDNAKNTVYLQMNSLKPEDTAVYYCAVTTPRGPYGYDYWGQGTQVTVSS” here?
The value was “high polyreactivity”.

Which “polyreactivity (PSR sort gate)” value does the source give for “QVQHVESGGGLVQAGGSLRLSCAASGSIFAGYANGWYRKAPGKERELVARITDRGGSTDYADSVKGRYTISRDNAKNTVYLQMNSLKPEDTAVYSCAKRGDRYEKRPRDYWGQGTQVTVSS” here?
Its value is “low polyreactivity”.

With “QVQHVESGGGLVQAGGSLRLSCAASGSIFAYNAMGCYRQARGKERELVAAITSSGGSTYYADSVKGRFTISRDNAKNTVYLPMNSLKPEDTAVYYCNAYGYFKKYNYWGQGTQVTVSS” as the sequence, how does the “polyreactivity (PSR sort gate)” value read?
Its value is “high polyreactivity”.

Which “polyreactivity (PSR sort gate)” value does the source give for “QVQHVESGGGLVQAGGSLRLSCAASGSIFGTYAMGWYRQAPGKERELVAAIRWSSGSTYYADSVKGRFTISRDNAKYTVYLLMNSLKPEDTAVYYCNAEYVYYWLGATFGYWGQGTQVTVSS” here?
Its value is “high polyreactivity”.

With “QVQHVESGGGLVQAGGSLRLSCAASGSIFIANAMGWYRQAPGKERELVAVINWGDGSTYADSVKGRFTISRDNAKNTVYLQMNSLKPEDTAVYYCNAPDEVNDVRYDYWGQGTQVTVSS” as the sequence, how does the “polyreactivity (PSR sort gate)” value read?
Its value is “low polyreactivity”.

With “QVQHVESGGGLVQAGGSLRLSCAASGSIFKPYAMGWYRLAPGKEREFVAAITSSDGTTYYADSVKGRFTISRDNAKNTVYVQMNSLKPEDTAVYYCNAEYYAKYVPFTKYYYWGQGTQVTVSS” as the sequence, how does the “polyreactivity (PSR sort gate)” value read?
The value was “low polyreactivity”.

For “QVQHVESGGGLVQAGGSLRLSCAASGSIFNYYDMGWYRQAPGKEREFVARITIGGSSTNYADSVKGRFTISRDNAKNTVYLQMNSLTPEDTAVYYCAAAQYGIFFSQMDYWGQGTQVTVSS”, which “polyreactivity (PSR sort gate)” value is on record?
Its value is “low polyreactivity”.

With “QVQHVESGGGLVQAGGSLRLSCAASGSIFRIYAMGWYRQAPGKERELVAAISVSTGSRTYYADSVKGRFTISRDNAKNTVYLQMNSLKPEDTAVYYCNAESYYDYNYWGQGTQVTVSS” as the sequence, how does the “polyreactivity (PSR sort gate)” value read?
The value was “low polyreactivity”.

Which “polyreactivity (PSR sort gate)” value does the source give for “QVQHVESGGGLVQAGGSLRLSCAASGSIFRKNAMGWYRQAPGKERELVAAISSGGGGTYYADSVKGRFTISRDNAKNTVYLQMNSLKPEDTAVFYCNKREGKGGNTKYDYWGQGTQVTVSS” here?
Its value is “low polyreactivity”.

Which “polyreactivity (PSR sort gate)” value does the source give for “QVQHVESGGGLVQAGGSLRLSCAASGSIFRYYTMGWYRQAPGKERELVAAISYSGGRTYYADSVKGRFTISRDNAKNTVYLQMNSLKPEDTAVYYCAAKLLQLRGRGYEYWGQGTQVTVSS” here?
The value was “high polyreactivity”.

With “QVQHVESGGGLVQAGGSLRLSCAASGSIFRYYVMGWYSQAPGKERELGAAISSGGRTYYADSVKGRFTISRDNAKNTVYLQMNSLKPEDTAVYYCNAQGLFYWEMDYWGQGTQVTVSS” as the sequence, how does the “polyreactivity (PSR sort gate)” value read?
The value was “high polyreactivity”.

Which “polyreactivity (PSR sort gate)” value does the source give for “QVQHVESGGGLVQAGGSLRLSCAASGSILGGNAMGWYRQAPGKERELVADISGSGDSTYYADSVKGRFTISRDNAKNTVYLQMNSLKPEETAVYYCAVDYDSYWYGTYVNEYDYWGQGTQVTVSS” here?
Its value is “low polyreactivity”.

Which “polyreactivity (PSR sort gate)” value does the source give for “QVQHVESGGGLVQAGGSLRLSCAASGSILRPNVMGWYRQAPGKDRELVARISSRGVNTYYADSVKGRFTISRDNAKNTVYLQMNSLKPEDTAVYYCNARRAQYYWNRSPKYDYWGQGTQVTVSP” here?
Its value is “high polyreactivity”.

With “QVQHVESGGGLVQAGGSLRLSCAASGSTFGKNTRGWSRQAPGKERELVAAISSRGGSTYYADSGKGRFTISRDNAKNTVYLQMNSLKPEDTAVYYCAAYSVSLGYDYWGQGTQVTVST” as the sequence, how does the “polyreactivity (PSR sort gate)” value read?
Its value is “high polyreactivity”.

With “QVQHVESGGGLVQAGGSLRLSCAASGSTFRRYAMGWYRQAPGKERELVASITYRGGSTYYADSVKGRFTISRDNAKNTVYLQKNSLKPEDTAVYYCSKKGVYGPLIEYWAQGTQVTVSS” as the sequence, how does the “polyreactivity (PSR sort gate)” value read?
The value was “high polyreactivity”.

For “QVQHVESGGGLVQAGGSLRLSCAASGSTFSPNAMGWYRQAPGKERELVAAIRWRTGTTYYADSVKGRFTISRDNAKNTVYLQMNSLKPEDTAVYYCAAVYKPPNNKYGSAWEYGYWGQGTQVTVSS”, which “polyreactivity (PSR sort gate)” value is on record?
Its value is “high polyreactivity”.

With “QVQHVESGGGLVQAGGSLRLSCAASGSTFTDYTMGWYRQAPGIESELVARIRSRGARTYYADSVKGRFTISRDNAKNTVYLQMNSLKPEDTAVYYCNKRWGAHRASPAYDYWGQGTQVTVSS” as the sequence, how does the “polyreactivity (PSR sort gate)” value read?
The value was “high polyreactivity”.

Which “polyreactivity (PSR sort gate)” value does the source give for “QVQHVESGGGLVQAGGSLRLSCAASGSTFVYYAMGWYRQPPGKERELVAVITRGGRTYYADSVKGRFTISRDNAKNTVYLQMNSLKPEDTAVYYCNKVTPHYHDTGLDYWGQGTQVTVSS” here?
The value was “high polyreactivity”.

For “QVQHVESGGGLVQAGGSLRLSCAASGSTFWYYDMGWYRQAPGKEMELVAAISGSGGRTYYADSVKGRFTISRDNAKNTVYLQMNSLKPEDTAVYYCAADDYWSADFKYNYWGQGTQVTVSS”, which “polyreactivity (PSR sort gate)” value is on record?
The value was “low polyreactivity”.

Which “polyreactivity (PSR sort gate)” value does the source give for “QVQHVESGGGLVQAGGSLRLSCAASGSTFYFYTMGWYRQAPGKERELVAAITYSGGSTYADSVKGRFTISRDNAKNTDYLQMNSLKPEDTAVYYCAAASYFYLYLLEDYWGQGTQVTVSS” here?
The value was “low polyreactivity”.

Which “polyreactivity (PSR sort gate)” value does the source give for “QVQHVESGGGLVQAGGSLRLSCAASGSTFYGNTMGCYRQAPGKERELVAAISIRGTRTYYADSVKGRFTISRDNAKNTVYLQMNSLKPEDTAVYYCNAVTFPHNYDYWGQGTQVTVSS” here?
Its value is “high polyreactivity”.

With “QVQHVESGGGLVQAGGSLRLSCAASGSTFYRNTKGWYRQAPGKETELVAAISRSGGSTYYADSVKGRFTISRDNAKNTVYVQMNSLKPEDTAVYYCNADYTDYQTYSATTYEYWGQGTQVTVSS” as the sequence, how does the “polyreactivity (PSR sort gate)” value read?
Its value is “low polyreactivity”.

For “QVQHVESGGGLVQAGGSLRLSCAASGSTIILNAMGWYRQAPGKERELVATISSSDTSTYYADSVKGRFTISRDNANNTVYLQMNSLKPEDTAVYYCNADYYTTSYLQRVIHYGVEYDYWGQGTQVTVSS”, which “polyreactivity (PSR sort gate)” value is on record?
The value was “low polyreactivity”.

Which “polyreactivity (PSR sort gate)” value does the source give for “QVQHVESGGGLVQAGGSLRLSCAASGSTYTVYAMGRDRQAPGKERELVAAISGSGGRTYYADSVKGRFTISRDNAKNTVYLQMNILKPEDTGVYYCASQGNYWGQGTQVTVSS” here?
The value was “high polyreactivity”.

For “QVQHVESGGGLVQAGGSLRLSCAASGTIFEGKGMGWYRQAPGKERELVAAITFRSGSTYYADSVKGRFTISRDNAKNTVYLQMNSLKPEDTAVYYCAADEYYQVSAYDYWGQGTQVTVSS”, which “polyreactivity (PSR sort gate)” value is on record?
Its value is “low polyreactivity”.

For “QVQHVESGGGLVQAGGSLRLSCAASGYTFIMYVMGWYRQAPGKERELVAAIDSNGTSTYADSVKGRFTISLDNAKNTVYFQMNSLKPEDTAVYYCAAGDIFRVFKEYDYWGQGTQVTVSS”, which “polyreactivity (PSR sort gate)” value is on record?
Its value is “low polyreactivity”.

Which “polyreactivity (PSR sort gate)” value does the source give for “QVQHVESGGGLVQAGGSLRLSCAASRSIFYYYAMGWYRQPPGKERELVAAISSDGTNYADSVKGRFTITRDNAKNTVYLQMNSLNPEDTAVYYCAKDHCTTSYDEGDYWGQGTQVTVSS” here?
The value was “low polyreactivity”.

With “QVQHVESGGGLVQAGGSLRLSCAASRSTFYYYAMGWYRQAPGKERELVAAISRGGGSTYYADSVKGRFTISRDNAKNTVYLQMNSLKPEDTADDYCAARRVGGGFYTWRNPAYEYWGQGTQVTVSS” as the sequence, how does the “polyreactivity (PSR sort gate)” value read?
Its value is “high polyreactivity”.

Which “polyreactivity (PSR sort gate)” value does the source give for “QVQHVESGGGLVQAGGSLRLSCAASVRTFIYYAMGWYRQAPGKERELVASITTGGRTYYADSVKGRFTISRDNAKNTVYLQMNSLKPEDTAVYYCNARWYRTGSTYHEDYWGQGTQVTVSS” here?
Its value is “high polyreactivity”.

Which “polyreactivity (PSR sort gate)” value does the source give for “QVQHVESGGGLVQAGGSLRLSCAASVRTLYYYAMGWSRQAPGKERELVAAISGGGRTYYADSVKGRFTISRDNAKNTVYLQMIILKPEDTAVYYCAARYRKSGLDNYWGQGTQVTVSS” here?
Its value is “high polyreactivity”.

Which “polyreactivity (PSR sort gate)” value does the source give for “QVQHVESGGGLVQAGGSLRLSCAASVSIFSPNDMGCYRQAPGKERELVAAITSAGSTYYADSVKGRFTISRDNAKNSVYLQMNSLKPEDTAVYYCAASYISVTDYAYFPLWYGYWGQGTQVTVSS” here?
Its value is “low polyreactivity”.

For “QVQHVESGGGLVQAGGSLRLSCASSGSTFRYNAMGWYRQAPVKERELVAAISSSGGSTYYADSVKGRFTISRDNAKNTVYLQMNSLKPEDPEVYYCAAPTRSRFKGYYYWGQGTQVTVSS”, which “polyreactivity (PSR sort gate)” value is on record?
Its value is “high polyreactivity”.

Which “polyreactivity (PSR sort gate)” value does the source give for “QVQHVESGGGLVQAGGSLRLSCSASGRTFNFYTMGWYRQAPGKEREFVAGITSTGGSTDYADSVKGRFTISRDNAKNTVYLQMNSLKPEDTAVYYCNALRRWWEPYWTYNYWGQGTQVTVSS” here?
The value was “high polyreactivity”.
